The text below walks through data of patent publication US20250009852A1, “DEPLETING EGFR AND HER2 OVERCOMES RESISTANCE TO EGFR INHIBITORS IN COLORECTAL CANCER” (Health Research, Inc., priority 2021, published 2025).

Data set [1] is described as follows: Monitoring of mice for signs of adverse effects. It counts as in vivo. As to conditions: mice bearing HCT116 or HT29 tumors; aderbasib alone or the combination regimen. The procedure: (§1) SCID mice (C.B.17 SCID) were bred by the Laboratory Animal Shared Resource at Roswell Park Comprehensive Cancer Center. Male mice at 7-8 weeks of age were used. All mouse experiments were approved by the Institutional Animal Care and Use Committee at Roswell Park Comprehensive Cancer Center under protocol 1022M. We established subcutaneous tumors by inoculating 1×10^6 HCT116 cells, 4×10^6 HT29 cells, or 2×10^6 SW48 cells to the flank of each mouse in 100 μl of serum free medium. Colon patient-derived xenograft (PDX) 14650 was established from a liver metastatic lesion in a patient treated at Roswell Park Comprehensive Cancer Center. Tumor fragments (˜20 mm^3) from donor mice were implanted into the flank of each mouse subcutaneously using a trocar. […] Subcutaneous tumor volume was measured using length ×width^2÷2. Tumor volume was measured three times each week. Orthotopic tumor growth was monitored by bioluminescence weekly. Mice were given D-luciferin (150 mg/kg) by ip and anesthetized with isoflurane, and tumor burden was measured by bioluminescence using the IVIS Spectrum In Vivo Imaging System (PerkinElmer). Drug treatment was started when significant tumor growth was detected. […] The mice were closely monitored for sign of adverse effects and weighed three times each week. […]

Data set [2] has as its system HER3, MET, IGF1R, SRC, AKT, ERK, MEK. Nature of the data set: Western blotting of whole cell lysates: other RTKs and downstream signaling proteins. It counts as cell-based, human. Conditions: 25 nM, 48 h. The protocol:
To prepare whole cell lysates, cells were washed with PBS twice, mixed with 1× cell lysis buffer from Cell Signaling Technology supplemented with 2 mM PMSF and a protease inhibitor cocktail from Roche Applied Science, placed on ice for 10 min, sonicated at 0-4° C. to enhance cell lysis using a Branson Model 450 sonifier, and finally centrifuged at 13,000 g for 10 min at 4° C., and the supernatant fraction is collected as whole cell lysate. Tumor and samples were mixed with RIPA buffer (25 mM Tris-HCl, PH7.6, 150 mM NaCl, 1% Nonidet P-40, 1% sodium deoxycholate, and 0.1% SDS), which was supplemented with 2 mM PMSF, the protease inhibitor cocktail mentioned above, phosphatase inhibitor cocktail 2 and phosphatase inhibitor cocktail 3 from Sigma-Aldrich at 14.3 μl buffer per mg tissue, and homogenized in a Dounce homogenizer. The homogenates were cleared by centrifugation at 13,000 g for 15 min at 4° C.
Protein concentrations in all samples were measured using the BCA Assay Kit. For Western blotting, each sample was mixed with 4× loading dye, heated for 5 min at 95° C., and resolved by SDS-PAGE (8-12.5%). Proteins were transferred to polyvinylidene fluoride membrane, probed with specific antibodies, and detected using either Luminata Classico (Millipore) or Luminata Cresendo (Millipore). For IP, cell lysates (0.5 mg protein/sample) were incubated with a desired antibody overnight at 4° C., followed by incubation of 500 μl sample with 30 μl G-Sepharose beads (2 mg/ml) for 1 h at RT. The beads were washed three times with IP buffer, suspended in 2× SDS loading buffer, boiled for 5 min, and analyzed by Western blotting.
(In western blotting, separated proteins are transferred to a membrane and probed.)

Data set [3] has as its system EGFR^R451C, EGFR^K467T, EGFR^S492R and WT EGFR. Nature of the data set: Western blotting of SW620 cells transfected with EGFR or its mutant. The class given is cell-based, human. Conditions: 25 nM for 48 h, extent very similar to WT EGFR. The source says: pGL4.51[luc2/CMV/Neo] was purchased from Promega (Cat #E132A). pCMV6-A-EGFR-puro, reported previously, was used as a template to generate single point mutations of EGFR, including R451C, K467T, and S492R, using the QuikChange Lightning Site-Directed Mutagenesis Kit (Agilent Technologies). The primers were purchased from IDT, including primers for generating EGFR^R451C (forward: 5′-[…]-3 (SEQ ID NO:2); reverse: 5′-[…]-3′ (SEQ ID NO:3), EGFR^K467T(forward: 5-[…]-3′ (SEQ ID NO:4); reverse: 5′-[…]-3′ (SEQ ID NO:5), and EGFR^S492R (forward: 5′-[…]-3′ (SEQ ID NO:6); reverse: 5′-[…]-3′ (SEQ ID NO:7)). All constructs were confirmed by DNA sequence analysis.
Transfection of pCMV6-A-puro-EGFR, pCMV6-A-puro-EGFR^R451C, pCMV6-A-puro-EGFR^K467T or pCMV6-A-puro-EGFR^RS492R was performed using Lipofectamine 3000. SW620 cells were grown in 6-well plates (3×10^5 cells/well with 2 ml medium) for 24 h and then transfected with a plasmid at 1 μg DNA per well for 48 h. […]
Protein concentrations in all samples were measured using the BCA Assay Kit. […] Proteins were transferred to polyvinylidene fluoride membrane, probed with specific antibodies, and detected using either Luminata Classico (Millipore) or Luminata Cresendo (Millipore). […] The beads were washed three times with IP buffer, suspended in 2× SDS loading buffer, boiled for 5 min, and analyzed by Western blotting.

The test system of data set [4] is SW48 tumors. In words: Subcutaneous SW48 tumors in SCID mice. It counts as in vivo, mouse. Conditions: sc SW48 tumors; EP 0.5 mg/kg ip daily plus PEPD^G278D 4 mg/kg ip three times weekly, or cetuximab 15 mg/kg ip twice weekly. The procedure: as §1

As to `COC(=O)N1CC2(CC2)C[C@H](C(=O)NO)[C@H]1C(=O)N1CC=C(c2ccccc2)CC1` [aderbasib], the signs of toxicity entry in data set [1] is reported as “did not show signs of toxicity”.

B1: PEPD^G278D: recombinant and enzymatically inactive mutant of human peptidase D (PEPD), with replacement of glycine 278 by aspartic acid (protein)
chain: AAATGPSFWLGNETLKVPLALFALNRQRLCERLRKNPAVQAGSIVVLQGGEETQRYCTDTGVLFLQESFFHWAFGVTEPGCYGVIDVDTGKSTLFVPRLPASHATWMGKIHSKEHFKEKYAVDDVQYVDEIASVLTSQKPSVLLTLRGVNTDSGSVCREASFDGISKFEVNNTILHPEIVESRVFKTDMELEVLRYTNKISSEAHREVMKAVKVGMKEYGLESLFEHYCYSRGGMRHSSYTCICGSGENSAVLHYGHAGAPNDRTIQNGDMCLFDMDGEYYSVASDITCSFPRNGKFTADQKAVYEAVLLSSRAVMGAMKPGDWWPDIDRLADRIHLEELAHMGILSGSVDAMVQAHLGAVFMPHGLGHFLGIDVHDVGGYPEGVERIDEPGLRSLRTARHLQPGMVLTVEPGIYFIDHLLDEALADPARASFLNREVLQRFRGFGGVRIEEDVVVIDSGIELLTCVPRTVEEIEACMAGCDKAFTPFSGPK
modifications: left off: small tags and cut ends
As to B1, in data set [2] (HCT116, HT29 and SW48 cells), the “expression of other signaling proteins (HER3, MET, IGF1R, SRC, AKT, ERK)” value was “had no effect on the expression” and the “phosphorylation of other signaling proteins (HER3, MET, IGF1R, SRC, AKT, ERK)” value is “markedly decreased their phosphorylation”. For the same molecule, in data set [2] (HCT116 and HT29 cells), the MEK phosphorylation result is listed as “markedly decreased MEK phosphorylation”. For the same molecule, in data set [2] (SW620 cells that lack EGFR and HER2), the “phosphorylation or expression of HER3, MET, IGF1R, SRC, AKT, and ERK” value is “had no effect”. The “downregulation (expression and phosphorylation) of each EGFR mutant R451C, K467T, S492R” value in data set [3] is given as “strongly downregulated”. The “inhibition of tumor growth at the end of treatment” value in data set [4] came out at 91.5%.
